Measurements taken from patent US20050191302.

Molecular target: recombinant TIMP-1 (Biogenesis, Poole, UK)

B1: recombinant human caspase-3 (Calbiochem) (protein)
chain: SGISLDNSYKMDYPEMGLCIIINNKNFHKSTGMTSRSGTDVDAANLRETFRNLKYEVRNKNDLTREEIVELMRDVSKEDHSKRSSFVCVLLSHGEEGIIFGTNGPVDLKKITNFFRGDRCRSLTGKPKLFIIQACRGTELDCGIETDSGVDDDMACHKIPVEADFLYAYSTAPGYYSWRNSKDGSWFIQSLCAMLKQYADKLEFMHILTRVNRKVATEFESFSFDATFHAKKQIPCIVSMLTKELYFYH
With B1 the “caspase-3 activity (colorimetric substrate assay; recombinant caspase-3 incubated with TIMP-1 at 285-2850 ng/ml for 1 hour before the substrate was added)” value was “TIMP-1 did not reduce caspase-3 activity directly (data not shown)”.
